Reference: the supplement of paper PMC7877785
± gives the uncertainty stated by the source.

Assay: self-splicing fitness, log relative to wild type (ln ratio); higher = more splicing; Tetrahymena group I intron in knt gene, E. coli kanamycin selection, DiMSum; sequences stand for … in CUCUCU…GGAGGGAAAAGUUAUCAGGCAUGCACCUGGUAGCUAGUCUUUAAACCAAUAGAUUGCAUCGGUUUAAAAGGCAAGACCGUCAAAUUGCGGGAAAGGGGUCAACAGCCGUUCAGUACCAAGUCUCAGGGGAAACUUUGAGAUGGCCUUGCAAAGGGUAUGGUAAUAAGCUGACGGACAUGGUCCUAACCACGCAGCCAAGUCCUAAGUCAACAGAUCUUCUGUUGAUAUGGAUGCAGUUCACAGACUAAAUGUCGGUCGGGGAAGAUGUAUUCUUCUCAUAAGAUAUAGUCGGACCUCUCCUUAAUGGGAGCUAGCGGAUGAAGUGAUGCAACACUGGAGCCGCUGGGAACUAAUUUGUAUGCGAAAGUAUAUUGAUUAGUUUUGGAGUACUCGUGGUCG
How it was run: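 Fitness was computed with DiMSum as the error-weighted combination of replicate fold changes, kanamycin versus none, each normalised to wild type. The library randomised all eight intron nucleotides of the P1ex region, with the intron placed in the knt kanamycin-resistance gene on pET-22b(+) in E. coli BL21(DE3). Six replicate transformations were grown overnight at 37°C or 30°C on LB agar with or without 25 μg/mL kanamycin, plus 100 μg/mL carbenicillin, 50 μM IPTG and 0.2% rhamnose. Pooled colonies were amplicon-sequenced on an Illumina HiSeq 2500.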

Sequence	self-splicing fitness (ln) (30 °C)	self-splicing fitness (ln) (37 °C)
CCCAAGCAAUAUUACGGACU	-3.92 ± 0.26	-2.6 ± 0.18
AUGAAGCAAUAUUACGACCG	-0.584 ± 0.24	-0.447 ± 0.27
AUUCAGCAAUAUUACGCGUA	-1.16 ± 0.086	-0.145 ± 0.11
UUGCAGCAAUAUUACGGGCA	-1.31 ± 0.13	-0.764 ± 0.14
UUCCAGCAAUAUUACGGUGG	-3.89 ± 0.27	-3.15 ± 0.24
GUCCAGCAAUAUUACGCAUU	-0.492 ± 0.053	0.587 ± 0.073
UAAGAGCAAUAUUACGGAUA	-2.84 ± 0.44	-1.54 ± 0.4
ACCUAGCAAUAUUACGCCAC	-2.11 ± 0.4	
CUUAAGCAAUAUUACGCGGA	-1.74 ± 0.25	-2.58 ± 0.44
ACUAAGCAAUAUUACGCCCU	0.438 ± 0.23	-0.36 ± 0.26
AUCCAGCAAUAUUACGCAAA	-2.07 ± 0.16	-0.15 ± 0.11
GGAAAGCAAUAUUACGUGAC	-2.97 ± 0.19	-1.94 ± 0.24
GUGCAGCAAUAUUACGAAGA	-2.35 ± 0.46	-0.855 ± 0.15
UAGAAGCAAUAUUACGGACA	-0.547 ± 0.11	-0.0716 ± 0.13
UGCCAGCAAUAUUACGGCCG	-0.659 ± 0.073	-0.389 ± 0.092
CUCGAGCAAUAUUACGAAGA	-2.78 ± 0.29	-1.64 ± 0.25
GCGCAGCAAUAUUACGGAGG	-1.63 ± 0.12	-0.473 ± 0.11
AUUUAGCAAUAUUACGUUAU	-2.2 ± 0.2	-1.95 ± 0.24
GGGUAGCAAUAUUACGUUGC	-3.63 ± 0.33	-0.334 ± 0.22
CAACAGCAAUAUUACGUAUC	-1.96 ± 0.16	-2.75 ± 0.18
GUAAAGCAAUAUUACGGAAG	-2.86 ± 0.18	-1.36 ± 0.15
GGUAAGCAAUAUUACGCCUU	-1.49 ± 0.15	-0.81 ± 0.15
CAGCAGCAAUAUUACGGAAC	-1.79 ± 0.3	-1.87 ± 0.44
AGCAAGCAAUAUUACGACAU	-0.211 ± 0.011	0.0321 ± 0.032
AUUGAGCAAUAUUACGUUGU	-3.5 ± 0.14	-2.1 ± 0.16

Sequence	self-splicing fitness (ln) (30 °C)	self-splicing fitness (ln) (37 °C)
CGGUAGCAAUAUUACGCUGC		-2.17 ± 0.49
ACUGAGCAAUAUUACGCCAC		-2.31 ± 0.35
UAGAAGCAAUAUUACGUCAC	-2.92 ± 0.35	
UUGUAGCAAUAUUACGGCGU	-1.2 ± 0.1	-0.999 ± 0.12
CCCUAGCAAUAUUACGGAUC	-4.33 ± 0.39	-1.71 ± 0.25
GCCUAGCAAUAUUACGAAUG	-2.57 ± 0.18	-2.43 ± 0.25
UGAUAGCAAUAUUACGGCAG	0.188 ± 0.17	0.0746 ± 0.18
AACUAGCAAUAUUACGACUA	-0.192 ± 0.2	-1.24 ± 0.15
GAUGAGCAAUAUUACGUUCA	-1.15 ± 0.079	-0.819 ± 0.094
UACGAGCAAUAUUACGUCUG	-1.51 ± 0.1	-1.34 ± 0.11
AAUUAGCAAUAUUACGUGUU	-1.05 ± 0.11	-1.78 ± 0.13
UGAGAGCAAUAUUACGUGGU	-2.67 ± 0.14	-2.61 ± 0.2
AAUUAGCAAUAUUACGUUGC	-3.47 ± 0.46	-2.75 ± 0.38
UGACAGCAAUAUUACGCGCC	-1.63 ± 0.12	-0.153 ± 0.15
UCUCAGCAAUAUUACGCUUU	-3.09 ± 0.3	-2.22 ± 0.31
CUCCAGCAAUAUUACGGCAU		-2.56 ± 0.39
UUUCAGCAAUAUUACGCUGC	-2.48 ± 0.31	-1.14 ± 0.35
AAUGAGCAAUAUUACGGUAA	-1.61 ± 0.34	-2.24 ± 0.4
AGGCAGCAAUAUUACGGCGG	-1.62 ± 0.094	-1.11 ± 0.13
CGCGAGCAAUAUUACGUAUC	-3.93 ± 0.34	-3.93 ± 0.36
UUAGAGCAAUAUUACGUAUC	-3.29 ± 0.48	-1.22 ± 0.34
GGUGAGCAAUAUUACGGGGG	-3.41 ± 0.43	
CGUCAGCAAUAUUACGUUUA	-2.93 ± 0.18	-1.66 ± 0.16
GUAAAGCAAUAUUACGGUAA	-1.09 ± 0.086	-0.336 ± 0.11
